Laboratory results taken from patent publication US20200199209A1 (JIANGSU HENGRUI MEDICINE, published 2020).

Legend:
[1] = molecular target: T1, human sclerostin (SOST) (human, UniProt Q9BQB4 24-213); assay: ELISA binding to human sclerostin (Test Example 1)
T1 construct: also called human SOST; h-SOST
T1 sequence (looked up): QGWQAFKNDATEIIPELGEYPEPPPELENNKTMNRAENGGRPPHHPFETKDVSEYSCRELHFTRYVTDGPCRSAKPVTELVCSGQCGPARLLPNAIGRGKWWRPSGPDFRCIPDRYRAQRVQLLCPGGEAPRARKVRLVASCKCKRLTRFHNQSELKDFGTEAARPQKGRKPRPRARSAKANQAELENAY

[2] = molecular target: T1, human sclerostin (SOST); assay: blocking of human SOST binding to human LRP-6 (Test Example 2)

EC50 [1]: 0.701 nM
IC50 [2]: 9.91 nM
B1: murine anti-human SOST monoclonal antibody Ab-1 (antibody, V domains shown)
VH: EVQLQQSGPELVKPGTSVKIPCQTSGYTFTDYNLDWLKQRPGESLEWIGDIDPNNGDILYNQKFRDKATLTVDTSSNTAYLELRSLTSEDTAVYYCARRWAYYFDYWGQGTTLTISS
VL: NIVMTQTPKLLFVSAGDRITITCKASQSVSNDVAWYQQKPGQSPKLLIYYTSNRFTGVPDRFTGSGYGTDFTLTINTVQAEDLAVYFCQQDYSSPVTFGAGTKLELK
notes: Murine antibody from the hybridoma cell strain Ab-1; also called murine Ab-1
